Measurements: publication PMC2577357 (Nucleic Acids Research, 2008)

T1: MthRnl (Methanobacterium thermoautotrophicum ΔH, UniProt O27289 1-381)
T1 sequence: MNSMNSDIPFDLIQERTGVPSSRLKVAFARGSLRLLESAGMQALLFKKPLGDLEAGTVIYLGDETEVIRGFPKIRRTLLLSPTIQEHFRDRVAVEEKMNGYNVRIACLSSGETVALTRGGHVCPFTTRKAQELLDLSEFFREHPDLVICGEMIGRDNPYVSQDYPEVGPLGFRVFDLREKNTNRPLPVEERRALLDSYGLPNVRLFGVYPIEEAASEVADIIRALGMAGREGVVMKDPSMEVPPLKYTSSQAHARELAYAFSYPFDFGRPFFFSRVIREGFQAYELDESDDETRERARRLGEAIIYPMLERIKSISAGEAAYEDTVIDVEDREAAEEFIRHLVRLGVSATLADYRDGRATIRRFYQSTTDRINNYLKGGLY

B1: Methanobacterium RNA ligase (MthRnl), full-length, His10-tagged (enzyme, Methanobacterium thermoautotrophicum ΔH, UniProt O27289 1-381, looked up)
chain: MNSMNSDIPFDLIQERTGVPSSRLKVAFARGSLRLLESAGMQALLFKKPLGDLEAGTVIYLGDETEVIRGFPKIRRTLLLSPTIQEHFRDRVAVEEKMNGYNVRIACLSSGETVALTRGGHVCPFTTRKAQELLDLSEFFREHPDLVICGEMIGRDNPYVSQDYPEVGPLGFRVFDLREKNTNRPLPVEERRALLDSYGLPNVRLFGVYPIEEAASEVADIIRALGMAGREGVVMKDPSMEVPPLKYTSSQAHARELAYAFSYPFDFGRPFFFSRVIREGFQAYELDESDDETRERARRLGEAIIYPMLERIKSISAGEAAYEDTVIDVEDREAAEEFIRHLVRLGVSATLADYRDGRATIRRFYQSTTDRINNYLKGGLY

How the values were obtained:
[1] = molecular target: the molecule itself; assay: glycerol gradient sedimentation
MthRnl = molecular target: T1, MthRnl; assay: EMSA

Binder	stoichiometry N [1]	Kd (MthRnl) [nM]
B1	2	–
ATTCCGATAGTGCGTGTCGCCCTT (ssDNA, 5'-phosphate) [pDNA 24-mer]	–	~2000
AUUCCGAUAGUGCGUGUCGCCCUU (ssRNA, 5'-phosphate) [pRNA 24-mer]	–	~1500
